B1: alpha/beta hydrolase variant of SEQ ID NO: 10 (R155K, N167T, S174C, V175A) (enzyme)
chain: MTDQSPETRDIFVPHAFEEQQVDLGEVVMNYVEAGSADHPALLLLPEQTGSWWSYEPVIGLLAESFHVFAVDIRGQGRSTWTPKRYSLDNFGNDLVRFISLVVKRPVIVSGNSSGGVLAAWLSAYAMPGQIRAALCEDTPFFASELVPAHGHSVKQAAGPAFELYRTFLGDQWCAADWDGFAAAAKASPSKIMSLFPSSDEPPQNLKEYDPEWARAFFEGTVALHCPHDLMLSQVKTPILITHHARAVDPHSGDLLGALSDFQAERAQAIIESAGVPVEYASFPDALHMMHQFEPERFAEVLTSWVARLPADTPGAHHHHHH
notes: homo-tetramer; also called zearalenone-cleaving polypeptide
B2: alpha/beta hydrolase variant of SEQ ID NO: 2 (N167T, F168Y, S174C, F218Y) (enzyme)
chain: MTDQSPETRDIFVPHAFEEQQVDLGEVVMNYVEAGSADHPALLLLPEQTGSWWSYEPVIGLLAESFHVFAVDIRGQGRSTWTPKRYSLDNFGNDLVRFISLVVKRPVIVSGNSSGGVLAAWLSAYAMPGQIRAALCEDTPFFASELVPAHGHSVRQAAGPAFELYRTYLGDQWCVADWDGFAAAAKASPSKIMSLFPSSDEPPQNLKEYDPEWARAFYEGTVALHCPHDLMLSQVKTPILITHHARAVDPHSGDLLGALSDFQAERAQAIIESAGVPVEYASFPDALHMMHQFEPERFAEVLTSWVARLPADTPGAHHHHHH
notes: as for B1
B3: alpha/beta hydrolase variant of SEQ ID NO: 15 (N167T, F168Y, S174C, D179E, A182C, A183R, K186R, A187R, F218Y) (enzyme)
chain: MTDQSPETRDIFVPHAFEEQQVDLGEVVMNYVEAGSADHPALLLLPEQTGSWWSYEPVIGLLAESFHVFAVDIRGQGRSTWTPKRYSLDNFGNDLVRFISLVVKRPVIVSGNSSGGVLAAWLSAYAMPGQIRAALCEDTPFFASELVPAHGHSVRQAAGPAFELYRTYLGDQWCVADWEGFCRAARRSPSKIMSLFPSSDEPPQNLKEYDPEWARAFYEGTVALHCPHDLMLSQVKTPILITHHARAVDPHSGDLLGALSDFQAERAQAIIESAGVPVEYASFPDALHMMHQFEPERFAEVLTSWVARLPADTPGAHHHHHH
notes: as for B1
B4: alpha/beta hydrolase variant of SEQ ID NO: 11 (R155K, N167T, S174C, V175T) (enzyme)
chain: MTDQSPETRDIFVPHAFEEQQVDLGEVVMNYVEAGSADHPALLLLPEQTGSWWSYEPVIGLLAESFHVFAVDIRGQGRSTWTPKRYSLDNFGNDLVRFISLVVKRPVIVSGNSSGGVLAAWLSAYAMPGQIRAALCEDTPFFASELVPAHGHSVKQAAGPAFELYRTFLGDQWCTADWDGFAAAAKASPSKIMSLFPSSDEPPQNLKEYDPEWARAFFEGTVALHCPHDLMLSQVKTPILITHHARAVDPHSGDLLGALSDFQAERAQAIIESAGVPVEYASFPDALHMMHQFEPERFAEVLTSWVARLPADTPGAHHHHHH
notes: as for B1
B5: alpha/beta hydrolase variant of SEQ ID NO: 17 (D10N, N167T, F168Y, S174C, D179E, A182C, A183R, K186R, A187R, F218Y) (enzyme)
chain: MTDQSPETRNIFVPHAFEEQQVDLGEVVMNYVEAGSADHPALLLLPEQTGSWWSYEPVIGLLAESFHVFAVDIRGQGRSTWTPKRYSLDNFGNDLVRFISLVVKRPVIVSGNSSGGVLAAWLSAYAMPGQIRAALCEDTPFFASELVPAHGHSVRQAAGPAFELYRTYLGDQWCVADWEGFCRAARRSPSKIMSLFPSSDEPPQNLKEYDPEWARAFYEGTVALHCPHDLMLSQVKTPILITHHARAVDPHSGDLLGALSDFQAERAQAIIESAGVPVEYASFPDALHMMHQFEPERFAEVLTSWVARLPADTPGAHHHHHH
notes: as for B1
B6: alpha/beta hydrolase variant of SEQ ID NO: 13 (N167T, S174C, F218Y) (enzyme)
chain: MTDQSPETRDIFVPHAFEEQQVDLGEVVMNYVEAGSADHPALLLLPEQTGSWWSYEPVIGLLAESFHVFAVDIRGQGRSTWTPKRYSLDNFGNDLVRFISLVVKRPVIVSGNSSGGVLAAWLSAYAMPGQIRAALCEDTPFFASELVPAHGHSVRQAAGPAFELYRTFLGDQWCVADWDGFAAAAKASPSKIMSLFPSSDEPPQNLKEYDPEWARAFYEGTVALHCPHDLMLSQVKTPILITHHARAVDPHSGDLLGALSDFQAERAQAIIESAGVPVEYASFPDALHMMHQFEPERFAEVLTSWVARLPADTPGAHHHHHH
notes: as for B1
B7: alpha/beta hydrolase variant of SEQ ID NO: 12 (N167S, S174C) (enzyme)
chain: MTDQSPETRDIFVPHAFEEQQVDLGEVVMNYVEAGSADHPALLLLPEQTGSWWSYEPVIGLLAESFHVFAVDIRGQGRSTWTPKRYSLDNFGNDLVRFISLVVKRPVIVSGNSSGGVLAAWLSAYAMPGQIRAALCEDTPFFASELVPAHGHSVRQAAGPAFELYRSFLGDQWCVADWDGFAAAAKASPSKIMSLFPSSDEPPQNLKEYDPEWARAFFEGTVALHCPHDLMLSQVKTPILITHHARAVDPHSGDLLGALSDFQAERAQAIIESAGVPVEYASFPDALHMMHQFEPERFAEVLTSWVARLPADTPGAHHHHHH
notes: as for B1
B8: alpha/beta hydrolase variant of SEQ ID NO: 19 (V28T, N167T, F168Y, S174C, D179E, A182C, A183R, K186R, A187R, F218Y) (enzyme)
chain: MTDQSPETRDIFVPHAFEEQQVDLGEVTMNYVEAGSADHPALLLLPEQTGSWWSYEPVIGLLAESFHVFAVDIRGQGRSTWTPKRYSLDNFGNDLVRFISLVVKRPVIVSGNSSGGVLAAWLSAYAMPGQIRAALCEDTPFFASELVPAHGHSVRQAAGPAFELYRTYLGDQWCVADWEGFCRAARRSPSKIMSLFPSSDEPPQNLKEYDPEWARAFYEGTVALHCPHDLMLSQVKTPILITHHARAVDPHSGDLLGALSDFQAERAQAIIESAGVPVEYASFPDALHMMHQFEPERFAEVLTSWVARLPADTPGAHHHHHH
notes: as for B1
B9: alpha/beta hydrolase variant of SEQ ID NO: 14 (N167T, F168Y, S174C) (enzyme)
chain: MTDQSPETRDIFVPHAFEEQQVDLGEVVMNYVEAGSADHPALLLLPEQTGSWWSYEPVIGLLAESFHVFAVDIRGQGRSTWTPKRYSLDNFGNDLVRFISLVVKRPVIVSGNSSGGVLAAWLSAYAMPGQIRAALCEDTPFFASELVPAHGHSVRQAAGPAFELYRTYLGDQWCVADWDGFAAAAKASPSKIMSLFPSSDEPPQNLKEYDPEWARAFFEGTVALHCPHDLMLSQVKTPILITHHARAVDPHSGDLLGALSDFQAERAQAIIESAGVPVEYASFPDALHMMHQFEPERFAEVLTSWVARLPADTPGAHHHHHH
notes: as for B1
B10: alpha/beta hydrolase variant of SEQ ID NO: 20 (H39R, N167T, F168Y, S174C, D179E, A182C, A183R, K186R, A187R, F218Y) (enzyme)
chain: MTDQSPETRDIFVPHAFEEQQVDLGEVVMNYVEAGSADRPALLLLPEQTGSWWSYEPVIGLLAESFHVFAVDIRGQGRSTWTPKRYSLDNFGNDLVRFISLVVKRPVIVSGNSSGGVLAAWLSAYAMPGQIRAALCEDTPFFASELVPAHGHSVRQAAGPAFELYRTYLGDQWCVADWEGFCRAARRSPSKIMSLFPSSDEPPQNLKEYDPEWARAFYEGTVALHCPHDLMLSQVKTPILITHHARAVDPHSGDLLGALSDFQAERAQAIIESAGVPVEYASFPDALHMMHQFEPERFAEVLTSWVARLPADTPGAHHHHHH
notes: as for B1
B11: alpha/beta hydrolase variant of SEQ ID NO: 16 (N167T, F168Y, S174C, D179E, A182C, A183R, K186R, A187R, F218Y, Q268L, V306I) (enzyme)
chain: MTDQSPETRDIFVPHAFEEQQVDLGEVVMNYVEAGSADHPALLLLPEQTGSWWSYEPVIGLLAESFHVFAVDIRGQGRSTWTPKRYSLDNFGNDLVRFISLVVKRPVIVSGNSSGGVLAAWLSAYAMPGQIRAALCEDTPFFASELVPAHGHSVRQAAGPAFELYRTYLGDQWCVADWEGFCRAARRSPSKIMSLFPSSDEPPQNLKEYDPEWARAFYEGTVALHCPHDLMLSQVKTPILITHHARAVDPHSGDLLGALSDFQAERALAIIESAGVPVEYASFPDALHMMHQFEPERFAEVLTSWIARLPADTPGAHHHHHH
notes: as for B1
B12: alpha/beta hydrolase variant of SEQ ID NO: 22 (P57E, V58A, I59M, N167T, F168Y, S174C, D179E, A182C, A183R, K186R, A187R, F218Y) (enzyme)
chain: MTDQSPETRDIFVPHAFEEQQVDLGEVVMNYVEAGSADHPALLLLPEQTGSWWSYEEAMGLLAESFHVFAVDIRGQGRSTWTPKRYSLDNFGNDLVRFISLVVKRPVIVSGNSSGGVLAAWLSAYAMPGQIRAALCEDTPFFASELVPAHGHSVRQAAGPAFELYRTYLGDQWCVADWEGFCRAARRSPSKIMSLFPSSDEPPQNLKEYDPEWARAFYEGTVALHCPHDLMLSQVKTPILITHHARAVDPHSGDLLGALSDFQAERAQAIIESAGVPVEYASFPDALHMMHQFEPERFAEVLTSWVARLPADTPGAHHHHHH
notes: as for B1
B13: alpha/beta hydrolase variant of SEQ ID NO: 23 (A63S, S65H, N167T, F168Y, S174C, D179E, A182C, A183R, K186R, A187R, F218Y) (enzyme)
chain: MTDQSPETRDIFVPHAFEEQQVDLGEVVMNYVEAGSADHPALLLLPEQTGSWWSYEPVIGLLSEHFHVFAVDIRGQGRSTWTPKRYSLDNFGNDLVRFISLVVKRPVIVSGNSSGGVLAAWLSAYAMPGQIRAALCEDTPFFASELVPAHGHSVRQAAGPAFELYRTYLGDQWCVADWEGFCRAARRSPSKIMSLFPSSDEPPQNLKEYDPEWARAFYEGTVALHCPHDLMLSQVKTPILITHHARAVDPHSGDLLGALSDFQAERAQAIIESAGVPVEYASFPDALHMMHQFEPERFAEVLTSWVARLPADTPGAHHHHHH
notes: as for B1
B14: alpha/beta hydrolase variant of SEQ ID NO: 21 (E47S, G50E, N167T, F168Y, S174C, D179E, A182C, A183R, K186R, A187R, F218Y) (enzyme)
chain: MTDQSPETRDIFVPHAFEEQQVDLGEVVMNYVEAGSADHPALLLLPSQTESWWSYEPVIGLLAESFHVFAVDIRGQGRSTWTPKRYSLDNFGNDLVRFISLVVKRPVIVSGNSSGGVLAAWLSAYAMPGQIRAALCEDTPFFASELVPAHGHSVRQAAGPAFELYRTYLGDQWCVADWEGFCRAARRSPSKIMSLFPSSDEPPQNLKEYDPEWARAFYEGTVALHCPHDLMLSQVKTPILITHHARAVDPHSGDLLGALSDFQAERAQAIIESAGVPVEYASFPDALHMMHQFEPERFAEVLTSWVARLPADTPGAHHHHHH
notes: as for B1
B15: alpha/beta hydrolase variant of SEQ ID NO: 18 (F17Y, I59M, N167T, F168Y, S174C, D179E, A182C, A183R, K186R, A187R, F218Y) (enzyme)
chain: MTDQSPETRDIFVPHAYEEQQVDLGEVVMNYVEAGSADHPALLLLPEQTGSWWSYEPVMGLLAESFHVFAVDIRGQGRSTWTPKRYSLDNFGNDLVRFISLVVKRPVIVSGNSSGGVLAAWLSAYAMPGQIRAALCEDTPFFASELVPAHGHSVRQAAGPAFELYRTYLGDQWCVADWEGFCRAARRSPSKIMSLFPSSDEPPQNLKEYDPEWARAFYEGTVALHCPHDLMLSQVKTPILITHHARAVDPHSGDLLGALSDFQAERAQAIIESAGVPVEYASFPDALHMMHQFEPERFAEVLTSWVARLPADTPGAHHHHHH
notes: as for B1

Target: the molecule itself
Test: Blue-Native-PAGE, oligomeric conformation (self-association of identical chains)
Excerpt: Comparison of the native molecular weight (oligomeric conformation) between single purified zearalenone-cleaving polypeptides was done via Blue-Native-PAGE. Dilutions of the elutes were supplied with not denaturating loading dye (e.g. 2× loading dye: 0.126 M tris(hydroxymethyl)aminomethan/hydrochloric acid pH 6.8, 20.0% glycerol, 4.0% Coomassie Blue G-250) and separated on a 4-15% polyacrylamid gel under native conditions (e.g. Mini-PROTEAN® Tetra Cell System, 1658004EDU+4-15% Mini-PROTEAN® TGX™ Precast Protein Gels, 4561083EDU, Bio-Rad Laboratories GmbH) (5× Anode Buffer: 0.125 M Tris(hydroxymethyl)aminomethane, 0.960 M Glycine, 1× Kathode Buffer: Anode Buffer+0.02% Coomassie Blue G250; 200 V, 40 minutes). The peptide bands were visualized by Coomassie staining. The oligomeric state of selected zearalenone-cleaving polypeptides was determined by size exclusion chromatography, SEC-MALS or X-Ray crystallography. Homo-dimers (e.g. SEQ ID NO. 1) migrated faster across the BN-PAGE gel matrix, while homo-tetramers (e.g. SEQ ID NO. 2-35) were retained in the gel matrix to a higher extent. The oligomeric conformation of the zearalenone-cleaving polypeptides was determined relatively to the migration of homo-dimeric and homo-tetrameric peptides.

Binding result, binds:
B1
B2
B3
B4
B5
B6
B7
B8
B9
B10
B11
B12
B13
B14
B15

Reference: patent US20230383269A1 (DSM AUSTRIA, published 2023)
